Measurements reported in patent US20210380703A1 (RIGEL PHARMACEUTICALS, published 2021).
Substitutions are numbered along the chain they refer to. One block for each binder: values may come before it.

Legend:
[1] = biological target: human ACVR2A (human, UniProt P27037 20-135, limits assumed); test: ELISA
Outline: (§1)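 Binding signal was read by ELISA after ACVR2A-specific monoclonal antibodies were tested against human ACVR2A and mouse ACVR2A, with human Fc as the negative control.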

[2] = biological target: mouse ACVR2A (mouse, UniProt P27038 20-135, limits assumed); test: ELISA
mouse ACVR2A, sequence (P27038 20-135 limits assumed): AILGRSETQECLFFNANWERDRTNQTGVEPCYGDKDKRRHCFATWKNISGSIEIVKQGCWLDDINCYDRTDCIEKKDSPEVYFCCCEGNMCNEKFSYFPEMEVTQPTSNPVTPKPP
Outline: as §1

[3] = biological target: T1, biotinylated goat anti-human kappa light chain; test: ELISA; positive control
T1 construct: Positive control of the ELISA
Outline: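 ELISA measured binding of ACVR2A-specific monoclonal antibodies to human and mouse ACVR2A. Biotinylated goat anti-human kappa light chain served as positive control and human Fc as negative control.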
Further: test concentration or dose not given here.

human ACVR2A, sequence (P27037 20-135 limits assumed): as the sequence (P27038 20-135 limits assumed) above, with R20K, I73V counted along it

B1: 373_C09 (antibody, V domains shown)
VH: EVQLLESGGGLVQPGGSLRLSCAASGFTFDSYSMNWVRQAPGKGLEWVAGINYNSGYKSYADSVKGRFTISRDNSKNTLYLQMNSLRAEDTAVYYCARSATWHDTHLDYWGQGTLVTVSS
VL: DIQMTQSPSSLSASVGDRVTITCRASQSILTYLNWYQQKPGKAPKLVIYAATSRASGVPSRFSGSGSGTDFTLTISSLQPEDFATYYCQQSYELPLTFGGGTKVEIK
notes: VH/VL only
optical density [1]: 3.64 OD
optical density [2]: 3.6 OD
optical density [3]: 3.22 OD

B2: 374_C04 (antibody, V domains shown)
VH: B1 VH with D30S
VL: B1 VL with V47L, T52S, R54L, A55Q
notes: VH/VL only
optical density [1]: 3.74 OD
optical density [2]: 3.74 OD
optical density [3]: 3.17 OD

B3: 373_E06 (antibody, V domains shown)
VH: B1 VH
VL: B1 VL with T31R, V47L, R54L, A55H, E93D, L94N
notes: VH/VL only
optical density [1]: 3.71 OD
optical density [2]: 3.64 OD
optical density [3]: 3.22 OD

B6: 373_E03 (antibody, V domains shown)
VH: B1 VH with S33G, A49S, G50N, S55G, K58T, S59G, H106A
VL: B1 VL with T31S, L33V, E93D
notes: VH/VL only
optical density [1]: 3.46 OD
optical density [2]: 3.46 OD
optical density [3]: 3.25 OD

B9: 374_D02 (antibody, V domains shown)
VH: B1 VH with K58T
VL: B1 VL with L30S, L33V, V47L, A51V, R54L, E93D, L94S
notes: VH/VL only
optical density [1]: 3.06 OD
optical density [2]: 3.2 OD
optical density [3]: 2.99 OD

B10: 373_F03 (antibody, V domains shown)
VH: B1 VH with G50N, K58T, S59G
VL: B1 VL with L33V, V47L, A55H, E93D, L94S
notes: VH/VL only
optical density [1]: 3.65 OD
optical density [2]: 3.6 OD
optical density [3]: 3.21 OD

B11: 374_C02 (antibody, V domains shown)
VH: B1 VH with A49S, S55G, K58T, S59G
VL: B1 VL with T31S, V47L, A55H, E93D, L94S
notes: VH/VL only
optical density [1]: 3.68 OD
optical density [2]: 3.64 OD
optical density [3]: 3.06 OD

B13: 374_B09 (antibody, V domains shown)
VH: B1 VH with D30S, A49S, S55G
VL: B1 VL with L30V, T31R, R54L
notes: VH/VL only
optical density [1]: 3.62 OD
optical density [2]: 3.65 OD
optical density [3]: 3.19 OD

B16: 373_H06 (antibody, V domains shown)
VH: B1 VH with D30S, S33G, N35H, S55G, K58T
VL: B1 VL with L30I, T31S, L33V, V47L, R54L, E93D
notes: VH/VL only
optical density [1]: 3 OD
optical density [2]: 3.15 OD
optical density [3]: 3.3 OD

B18: 373_E02 (antibody, V domains shown)
VH: B1 VH with S33G, N35H, A49S, S55G, S59G
VL: not shown
notes: VH/VL only
optical density [1]: 3.61 OD
optical density [2]: 3.64 OD
optical density [3]: 2.92 OD

B20: 374_D12 (antibody, V domains shown)
VH: B1 VH with A49S, S55G, K58T, S59G
VL: B1 VL with L30V, T31S, L33V, E93D
notes: VH/VL only
optical density [1]: 3.55 OD
optical density [2]: 3.28 OD
optical density [3]: 3.09 OD

B21: 373_E04 (antibody, V domains shown)
VH: B1 VH with S55G, K58T
VL: B1 VL with L33V, V47L, E93N, L94S
notes: VH/VL only
optical density [1]: 3.56 OD
optical density [2]: 3.55 OD
optical density [3]: 3.3 OD

B22: 374_E07 (antibody, V domains shown)
VH: B1 VH with D30S, S31D, S55G, K58T, T101N, H106A
VL: B1 VL with L30I, L33V, E93N, L94T
notes: VH/VL only
optical density [1]: 3.63 OD
optical density [2]: 3.58 OD
optical density [3]: 3.2 OD

B25: 374_E05 (antibody, V domains shown)
VH: B1 VH with D30S, S55G, K58T, T101N, H106A
VL: B1 VL with T31S, Y32F, L33V, E93N
notes: VH/VL only
optical density [1]: 3.56 OD
optical density [2]: 3.57 OD
optical density [3]: 3.18 OD

B26: 374_C08 (antibody, V domains shown)
VH: B1 VH with S33G, A49S, H106A
VL: B1 VL with T31S, L33V, V47L, A51V, E93D, L94S
notes: VH/VL only
optical density [1]: 3.29 OD
optical density [2]: 3.42 OD
optical density [3]: 3.18 OD

B27: 374_E08 (antibody, V domains shown)
VH: B1 VH with D30S, S33G, S55G, T101N, H106A
VL: B1 VL with T31S, V47L, A55H, E93D
notes: VH/VL only
optical density [1]: 3.5 OD
optical density [2]: 3.52 OD
optical density [3]: 3.26 OD

B28: 374_C11 (antibody, V domains shown)
VH: B1 VH with D30S, S59G
VL: B1 VL with V47L, L94S
notes: VH/VL only
optical density [1]: 3.64 OD
optical density [2]: 3.59 OD
optical density [3]: 3.21 OD

B29: 374_C05 (antibody, V domains shown)
VH: B1 VH
VL: B1 VL with L30I, T31R, E93D, L94N
notes: VH/VL only
optical density [1]: 3.7 OD
optical density [2]: 3.69 OD
optical density [3]: 3.18 OD

B30: 374_E02 (antibody, V domains shown)
VH: B1 VH with D30S, A49S, S55G, K58T, T101N, H106A
VL: B1 VL with T31S, V47L, R54L, E93D
notes: VH/VL only
optical density [1]: 3.23 OD
optical density [2]: 3.33 OD
optical density [3]: 3.18 OD

B32: 373_H10 (antibody, V domains shown)
VH: B1 VH with D30S, S55G, K58T, S59G
VL: B1 VL with T31S, L33V, V47L, E93S
notes: VH/VL only
optical density [1]: 3.24 OD
optical density [2]: 3.25 OD
optical density [3]: 3.19 OD

B34: 374_A11 (antibody, V domains shown)
VH: B1 VH with D30S, S31D, G50N, S59G
VL: B1 VL with T31S, L33V, E93S, L94S
notes: VH/VL only
optical density [1]: 3.65 OD
optical density [2]: 3.72 OD
optical density [3]: 2.81 OD

B36: 373_G05 (antibody, V domains shown)
VH: B1 VH with D30S, S55G, K58T
VL: B1 VL with T31S, V47L, R54L
notes: VH/VL only
optical density [1]: 3.61 OD
optical density [2]: 3.62 OD
optical density [3]: 3.22 OD

The remaining lines, values ahead:

optical density [1]: 3.21 OD
optical density [2]: 3.45 OD
optical density [3]: 3.28 OD
B4: 374_F10 (antibody, V domains shown)
VH: B1 VH with D30S, A49S, S55G, K58T, T101N, H106A
VL: B1 VL with T31S, E93D, L94N
notes: VH/VL only

optical density [1]: 3.61 OD
optical density [2]: 3.59 OD
optical density [3]: 3.34 OD
B5: 374_E11 (antibody, V domains shown)
VH: B1 VH with D30S, S33G, A49S, G50N, S55G, K58T, T101N, H106A
VL: B1 VL with L30V, E93D, L94S
notes: VH/VL only

optical density [1]: 3.31 OD
optical density [2]: 3.27 OD
optical density [3]: 3.09 OD
B7: 374_H08 (antibody, V domains shown)
VH: B1 VH with A49S, S55G, K58T, S59G
VL: B1 VL with T31S, V47L, R54L, A55H, L94N
notes: VH/VL only

optical density [1]: 3.66 OD
optical density [2]: 3.61 OD
optical density [3]: 3.15 OD
B8: 374_F11 (antibody, V domains shown)
VH: B1 VH with A49S, G50N, S55G, K58T, S59G, T101N, H106A
VL: B1 VL with T31S, V47L, A51V, R54L, L94S
notes: VH/VL only

optical density [1]: 3.28 OD
optical density [2]: 3.31 OD
optical density [3]: 3.19 OD
B12: 374_H04 (antibody, V domains shown)
VH: B1 VH with A49S, K58T, T101N, H106A
VL: B1 VL with V47L, E93D, L94N
notes: VH/VL only

optical density [1]: 3.3 OD
optical density [2]: 3.26 OD
optical density [3]: 3.08 OD
B14: 374_H06 (antibody, V domains shown)
VH: B1 VH with D30S, S33G, A49S, G50N, S55G, K58T, S59G, T101N, H106A
VL: B1 VL with L30V, T31S, L33V, E93N
notes: VH/VL only

optical density [1]: 3.26 OD
optical density [2]: 3.42 OD
optical density [3]: 3.29 OD
B15: 374_G06 (antibody, V domains shown)
VH: B1 VH with D30S, S33G, N35H, G50S, S55G, K58T, T101N, H106A
VL: B1 VL with T31S, V47L, A51V, E93D
notes: VH/VL only

optical density [1]: 3.67 OD
optical density [2]: 3.58 OD
optical density [3]: 3.16 OD
B17: 374_E09 (antibody, V domains shown)
VH: B1 VH with D30S, S31D, A49S, S55G, S59G
VL: B1 VL with L30V, E93D, L94S
notes: VH/VL only

optical density [1]: 3.58 OD
optical density [2]: 3.65 OD
optical density [3]: 3.23 OD
B19: 374_F04 (antibody, V domains shown)
VH: B1 VH with D30S, S33G, A49S, T101N, H106A
VL: B1 VL with L33V, V47L, E93N, L94S
notes: VH/VL only

optical density [1]: 2.1 OD
optical density [2]: 2.32 OD
optical density [3]: 3.02 OD
B23: 374_G04 (antibody, V domains shown)
VH: B1 VH with D30S, S55G, K58T, S59G, T101N, H106A
VL: B1 VL with R54L, E93D, L94N
notes: VH/VL only

optical density [1]: 3.24 OD
optical density [2]: 3.25 OD
optical density [3]: 2.97 OD
B24: 374_H07 (antibody, V domains shown)
VH: B1 VH with S33G, G50N, S55G, K58T, S59G, T101N, H106A
VL: B1 VL with V47L, L94T
notes: VH/VL only

optical density [1]: 3.29 OD
optical density [2]: 3.6 OD
optical density [3]: 3.03 OD
B31: 374_F01 (antibody, V domains shown)
VH: B1 VH with A49S, G50N, S55G, K58T, S59G, T101N, H106A
VL: B1 VL with T31S, L33V, A55H, L94N
notes: VH/VL only

optical density [1]: 3.27 OD
optical density [2]: 3.27 OD
optical density [3]: 3.06 OD
B33: 374_H03 (antibody, V domains shown)
VH: B1 VH with D30S, S33G, A49S, T101N, H106A
VL: B1 VL with T31S, L33V, E93D, L94S
notes: VH/VL only

optical density [1]: 3.63 OD
optical density [2]: 3.72 OD
optical density [3]: 3.26 OD
B35: 374_G07 (antibody, V domains shown)
VH: B1 VH with D30S, A49S, T101N, H106A
VL: B1 VL with L30I, T31S, V47L, E93D, L94S
notes: VH/VL only
